Measurements reported in the nanobody polyreactivity screen of Harvey et al. (2022).

assay: yeast display, Sf9 membrane polyspecificity reagent, FACS + sequencing; frameworks hold sequencing errors
Procedure, shortened: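 Synthetic nanobody libraries on Saccharomyces cerevisiae BJ5465 were galactose-induced for 36–48 hours, stained 1 hour at 4 °C with 10% biotinylated, detergent-solubilized Sf9 membrane reagent and enriched on streptavidin microbeads. FACS then separated cells into low and high (top ~1%) gates by anti-HA (expression) and streptavidin (reagent binding) fluorescence. Genes were colony-PCR amplified, MiSeq 2 × 250 sequenced and CDR-length filtered. A clone's polyreactivity label is that of its gate of origin.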

Row | Sequence | polyreactivity (PSR sort gate)
1 | QVQLVESGGGLVQAGGSLRLSCAASGRIFKFNAMGWYRQAPGKERELVAATWSGGRTSYADSVKGRFTISRDNAKNTVYLQMNSLKPEDTAVYYCNAADWIDVQYDYWGQGNQVTVSS | low polyreactivity
2 | QVQLVESGGGLVQAGGSLRLSCAASGRIFKGNAMGWYRQAPGKEREFVAAISQRGGSTYYADSVKGRFTISRDNAKNTVYLQMNSLKPEDTAVYFCAAAAQRPEGYYWGQGTQVTVSS | high polyreactivity
3 | QVQLVESGGGLVQAGGSLRLSCAASGRIFKGNAMGWYRQAPGKEREFVADISQRGGSTYYADSVKGRFTISRDNAKNTVYLQMNSLKPEDTAVYYCAAVRKSVGVKYDYWGQGTQVTVSS | high polyreactivity
4 | QVQLVESGGGLVQAGGSLRLSCAASGRIFKGYAMGWYRLAPGKERELVAAITSGGNTNYADSVKGRFTISRDNAKNTVYLQMNSLKPEDTAVYYCAARPRFVYSYPYYYWGQGTQVTVSS | high polyreactivity
5 | QVQLVESGGGLVQAGGSLRLSCAASGRIFKHYAMGWYRQAPGKERELVAAITNGGRTNYADSVKGRFTISRDNAKNTVYLQMNSLKPEDTAVYYCARDRKIAYLSEGFDYWGQGTQVTVSS | low polyreactivity
6 | QVQLVESGGGLVQAGGSLRLSCAASGRIFKNYAMGWYRQAPGKERELVAAISRSGGRTYYADSVKGRFTISRDNAKNTVYLQMNSLKPEDTAVYYCAADVDYRYSKIYKWTYDYWGQGTQVTVSS | high polyreactivity
7 | QVQLVESGGGLVQAGGSLRLSCAASGRIFKNYAMGWYRQAPGKERELVAAITWSGGRTYYADSVKGRFTISRDNAKNTVYLQMNSLKPEDTAVYYCATAARRGPNSIEPFGYGSWGQGTQVTVSS | high polyreactivity
8 | QVQLVESGGGLVQAGGSLRLSCAASGRIFKRNAMGGYRQAPGKDREVVADMSYGHSTYADSVKGRFTISRDNAKKTVYLQMNSLKPEDTAFYYCAKLYWIRTYDYWGQGTQVSVSS | low polyreactivity
9 | QVQLVESGGGLVQAGGSLRLSCAASGRIFKRNAMGWYRQAPGKERELVAAISYSGGSTYYADSVKGRFTISRDNAKNTVYLQMNSLKPEDTAVYYCAVDRYPTGITKYDYWGQGTQVTVSS | high polyreactivity
10 | QVQLVESGGGLVQAGGSLRLSCAASGRIFKRNTMGWYRQAPGKEWELVAAITRSGGSTHYADSVKGRFTFSRDNAKNTVYLHMNSLKPEDTAVYYCAVRAAAIDRLAQFDYWGQGSQVTVSS | low polyreactivity
11 | QVQLVESGGGLVQAGGSLRLSCAASGRIFKRYAMGWYRQAPGKERELVAAISRGGSTNYADSVKGRFTISRDNAKNTVYLQMNSLKPEDTAVYYCAVQSGYSGSSQPVRYDYWGQGTQVTVSS | high polyreactivity
12 | QVQLVESGGGLVQAGGSLRLSCAASGRIFKRYAMGWYRQAPGKERELVAAITSSGGRTYYADSVKGRFTISRDNAKNTVYLQMNSLKPEDTAVYYCNVDSANRDGYWGQGTQVTVSS | high polyreactivity
13 | QVQLVESGGGLVQAGGSLRLSCAASGRIFKRYAMGWYRQAPGKERELVASITWSGGSTYYADSVKGRFTISRDNAKNTVYLQMNSLKPEDTAVYYCAARRTATTSRAYYYWGQGTQVTVSS | high polyreactivity
14 | QVQLVESGGGLVQAGGSLRLSCAASGRIFKRYAMGWYRQAPGKERELVATITNGGRTSYADSVKGRFTISRDNAKNTVYLQMNSLKPEDTAVYYCNAYGQTSRPLVYGWRYDYWGQGTQVTVSS | high polyreactivity
15 | QVQLVESGGGLVQAGGSLRLSCAASGRIFKSYAMGWYRQAPGKEMELVAAINWSGGSTYYADSVKGRFTISRDNAKNTVYLQMNSLKPEDTAVYYCNALYAVRSYDSWGQGTQVTVSS | high polyreactivity
16 | QVQLVESGGGLVQAGGSLRLSCAASGRIFKSYAMGWYRQAPGKERELVASIRTGGTTNYADSVNGRFTISRDNAKNTVYLQMNSLKPEDTAVYDCNRGYYSYYGRYYYWGQGTQVTVSS | high polyreactivity

Row | Sequence | polyreactivity (PSR sort gate)
17 | QVQLVESGGGLVQAGGSLRLSCAASGRIFKSYVMGWYRQAPGKERELVAAISKRGGRTYYADSVKGRFTISRDNAKNTVYLQMNSLKPEDTAVYYCNATYPVGDFDYWGQGTQVTVSS | high polyreactivity
18 | QVQLVESGGGLVQAGGSLRLSCAASGRIFKTYTMGWYRQAPGKERELVAVSTSVGSTYYADSVKGRFTISRDNAKNTVYLQMNSLKPEDTAVYYCAAETWVPQGYDYWGQGTQVTVSS | high polyreactivity
19 | QVQLVESGGGLVQAGGSLRLSCAASGRIFKVNTMGWYRQAPGKERELVASIRGGGSTNYADSVKGRFTISRDNAKNTVNLQMHSPKPEDTAVYYCAAGTSKPTPIYGYWGQGTQVTVSS | low polyreactivity
20 | QVQLVESGGGLVQAGGSLRLSCAASGRIFKVYAMGWYRQAPGKERELVAAISSRGGSTYYADSVKGRFTISRDNAKNTVYLQMNSLKPEDTAVYYCAALVTWLHPKGDYWGQGTQVTVSS | high polyreactivity
21 | QVQLVESGGGLVQAGGSLRLSCAASGRIFKWYAMGWYRQAPGKERELVAAITSGGGSTYYADSVKGRFTISRDNAKNTVYLQMNSLKPEDTAVYYCNSWSSYGYDYWGQGTQVTVSS | high polyreactivity
22 | QVQLVESGGGLVQAGGSLRLSCAASGRIFKYNAMGWYRQAPGKERELVAVISFSGGSTYYADSVKGRFTISRDNAKNTVYLQMNSLKPEDTAVYYCNVRQHYSRRLKKWQMDCWGQGTQVTVSS | high polyreactivity
23 | QVQLVESGGGLVQAGGSLRLSCAASGRIFKYYAMGWYRPAPGNETELVAAIRWSDSTYYADSVKGRFTSSRDNAKNTVYLQMNSLQPEDTAVYYCAALYRHPQEYRVGDYDYWGQGTQVTVSS | low polyreactivity
24 | QVQLVESGGGLVQAGGSLRLSCAASGRIFKYYAMGWYRQAPGKERELFAAISRGGSTYYADSVKGRFTISRDNAKNTVYLQMNSLKPEDTAVYYCNAYRHGYVAYRRYDYWGQGTQVTVSS | high polyreactivity
25 | QVQLVESGGGLVQAGGSLRLSCAASGRIFKYYAMGWYRQAPGKERELVAAISRSGGSTYYADSVKGRFTISRDNAKKTVYLQMNSLKPEDTAVYYCAAGYKQATYDRIRTAYGYWGQGTQVTVSS | high polyreactivity
26 | QVQLVESGGGLVQAGGSLRLSCAASGRIFKYYSMGWYRQAPGKERELVAAITRGGSTNYADSVKGRFTISRDNAKNTFYLQMKSLKTEDTEVYYCAVDTVRNHLMDYWGQGNQVTVSS | low polyreactivity
27 | QVQLVESGGGLVQAGGSLRLSCAASGRIFKYYTMVWYRQAPGKERELVAAINSRGGTTYYADSVKGRFTISRDNAKNTVYLQMNSLKPVDTAVYYCAIDRIRDAGYRGLHRFDYWGQGTQVTLSS | low polyreactivity
28 | QVQLVESGGGLVQAGGSLRLSCAASGRIFKYYVMGWYRQAPGKERELVAGISSSGGSTYYADSVKGRFTISRDNAKNTVYLQMNSLKPEDTAVYYCAADYTFAYYNVKMDYWGQGTQVTVSS | low polyreactivity
29 | QVQLVESGGGLVQAGGSLRLSCAASGRIFLFNAMGWYRQAPGKEREFVAAISASGGSTYYADSVKGRFTISRDNAKNTVYLQMNSLKPEDTAVYYCAADYLYTRDVDYDYWGQGTQVTVSS | low polyreactivity
30 | QVQLVESGGGLVQAGGSLRLSCAASGRIFLFYAMGWYRPAPGKERELVAAISVRGGSTYYADSVKGRFTISRDNAKNTVYLQMNSLKPEDTAVYYCAAKQKHTQQYGYWGQGTQVTVSS | high polyreactivity
31 | QVQLVESGGGLVQAGGSLRLSCAASGRIFLGNAMGWYRQAPGKESELVAAITYSGRSTYYADSVKGRFTISRDNAKNTVYLQMNSLKPEDTAVYYSAARQYWTTDLPFQRYYYWGQGTQVTVSS | low polyreactivity
32 | QVQLVESGGGLVQAGGSLRLSCAASGRIFLGNVMGWYRQAPGKERELVAAISSGGSTNYADSVKGRFTISRDNAKNTVYLQMNSLKPEDTAVYYCAAYFVRDWKLYYYWGQGTQVTVSS | low polyreactivity
